Data on two molecules can be found in article PMC9860126, “Mechanistic insights into the nickel-dependent allosteric response of the Helicobacter pylori NikR transcription factor”.

For data set [1], the target named is T1, HpNikR K31A (Helicobacter pylori G27, UniProt A1YSQ9 1-148, K31A). Nature of the data set: fluorescence anisotropy; Ni(II)-bound; FA: 5 nM DNA, 20 mM Tris pH 7.6, 100 mM NaCl, 3 mM MgSO4, temperature not stated (Ni loading 1.2 eq NiSO4 per monomer at RT). EMSA: 20 mM Tris pH 7.5, 100 mM KCl, 3 mM MgCl2, 0.1% IGEPAL, 5% glycerol, 0.1 mg/ml herring sperm DNA, RT; gel with 800 uM NiSO4 at 4 C. The note with it: protein: recombinant; tags: none stated; chain copies: 4; label: fluorescein on internal thymine (T14 of strand 1); blunt. Background: In fluorescence polarisation assays a small probe gives low polarisation when free and higher when bound to something large.

For data set [2], the target named is HpNikR N32A (Helicobacter pylori G27, UniProt A1YSQ9 1-148, N32A). Described as above. The following applies: protein: recombinant; tags: none stated; chain copies: 4; label: fluorescein on internal thymine (T14 of strand 1); blunt.
The target of data set [3] is T2, HpNikR T92A (Helicobacter pylori G27, UniProt A1YSQ9 1-148, T92A). The data set is described as above. The following applies: protein: recombinant; tags: none stated; chain copies: 4; label: fluorescein on internal thymine (T14 of strand 1); blunt.
Data set [4] concerns the target HpNikR Q81A (Helicobacter pylori G27, UniProt A1YSQ9 1-148, Q81A). The description is as above. The following applies: protein: recombinant; tags: none stated; chain copies: 4; label: fluorescein on internal thymine (T14 of strand 1); blunt.
In data set [5] the target is T3, HpNikR E56A (Helicobacter pylori G27, UniProt A1YSQ9 1-148, E56A). The description is as above. The following applies: protein: recombinant; tags: none stated; chain copies: 4; label: fluorescein on internal thymine (T14 of strand 1); blunt.
Data set [6] concerns the target T4, HpNikR WT (Helicobacter pylori G27 (from vector …, UniProt A1YSQ9 1-148)).
T4 sequence: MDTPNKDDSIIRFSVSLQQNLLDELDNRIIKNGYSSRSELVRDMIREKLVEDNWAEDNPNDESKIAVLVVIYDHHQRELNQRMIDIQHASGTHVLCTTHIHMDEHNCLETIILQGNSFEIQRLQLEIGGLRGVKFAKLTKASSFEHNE
The data set is described as above. The following applies: protein: recombinant; tags: none stated (untagged purification); chain copies: 4; label: fluorescein on internal thymine (T14 of strand 1); blunt.

Data set [7] concerns the target HpNikR E62A (Helicobacter pylori G27, UniProt A1YSQ9 1-148, E62A). The data set is described as above. The note with it: protein: recombinant; tags: none stated; chain copies: 4; label: fluorescein on internal thymine (T14 of strand 1); blunt.
Data set [8] concerns the target T1, HpNikR K31A. In words: fluorescence anisotropy; apo (no Ni); FA: 5 nM DNA, 20 mM Tris pH 7.6, 100 mM NaCl, 3 mM MgSO4, temperature not stated (Ni loading 1.2 eq NiSO4 per monomer at RT). EMSA: 20 mM Tris pH 7.5, 100 mM KCl, 3 mM MgCl2, 0.1% IGEPAL, 5% glycerol, 0.1 mg/ml herring sperm DNA, RT; gel with 800 uM NiSO4 at 4 C. The following applies: protein: recombinant; tags: none stated; chain copies: 4; label: fluorescein on internal thymine (T14 of strand 1); blunt.

Data set [9] concerns the target T2, HpNikR T92A. The data set is described as above. The following applies: protein: recombinant; tags: none stated; chain copies: 4; label: fluorescein on internal thymine (T14 of strand 1); blunt.
For data set [10], the target named is T3, HpNikR E56A. The description is as above. The note with it: protein: recombinant; tags: none stated; chain copies: 4; label: fluorescein on internal thymine (T14 of strand 1); blunt.

B1: ureA promoter 32 bp (FA) (dsDNA)
DNA 1: ATATAACACTAATTCATTTTAAATAATAATTA
DNA 2: TAATTATTATTTAAAATGAATTAGTGTTATAT
Usually Kd stands for the concentration at which binding is half-saturated. In the case of B1, the Kd turned out to be 6.8 ± 1 nM in [1]; 4.8 ± 0.9 nM in data set [2]; 3.6 ± 0.2 nM in data set [3]; 6.5 ± 1 nM in data set [4]; 5.4 ± 0.1 nM in data set [5]; 4.5 ± 0.6 nM in [6]. Besides, the Kd in data set [7] was found to be 10.1 ± 1.1 nM; in data set [8] it was 2300 ± 500 nM; in [9], 2200 ± 200 nM; in data set [10] it was 1800 ± 300 nM.

B2: ureA-perf promoter 32 bp (dsDNA)
DNA 1: ATATATTATTAATTCATTTTAAATAATAATTA
DNA 2: TAATTATTATTTAAAATGAATTAATAATATAT
Consider B2, for which the Kd in [1] was 4.1 ± 1 nM; in data set [2], 1.3 ± 0.4 nM; in data set [3], 2.6 ± 0.5 nM; in data set [4], 3.9 ± 1.4 nM; in [5], 5.9 ± 0.8 nM; in data set [6], 4.7 ± 0.4 nM. For the same molecule, the Kd stood at 2.9 ± 0.9 nM in data set [7], 1300 ± 200 nM in data set [8], 2500 ± 400 nM in data set [9] and 1200 ± 100 nM in data set [10].
